Results taken from US20210032364A1.

Key:
[1] = molecular target: Na+/K+ ATPase α-1 on mouse Lewis Lung LL/2 cancer cells (mouse) (UniProt Q8VDN2); experiment: flow cytometry, 5 µg/ml, EDTA-treated permeabilized mouse LL/2 cells
[2] = molecular target: Na+/K+ ATPase α-1 on mouse Lewis Lung LL/2 cancer cells (mouse) (UniProt Q8VDN2); experiment: flow cytometry, 5 µg/ml, EDTA-treated intact mouse LL/2 cells
[3] = molecular target: Na+/K+ ATPase α-1 on mouse Lewis Lung LL/2 cancer cells (mouse) (UniProt Q8VDN2); experiment: flow cytometry, 5 µg/ml, trypsin-treated intact mouse LL/2 cells

Question: With “mAb to Na+/K+ ATPase α-1 (Abcam, Cat. No. ab2826) (antibody)” as the substance, how does the % cells stained [1] read?
Answer: 63.8%

Question: What about the % cells stained [2] of the same substance?
Answer: 29.9%

Question: And the % cells stained [3]?
Answer: 20.5%
